Test results taken from paper PMC4459711.
Where two headings read alike, the source gives them in different places.

Legend:
Assay in all cases: X-ray crystallography
[1] = biological target: T1, L1750 (LACV L protein, residues 1-1750) (La Crosse virus (strain …, UniProt A5HC98 1-1750))
[2] = biological target: T1, L1750 (LACV L protein, residues 1-1750); remark: listed apart in the source
[3] = biological target: T1, L1750 (LACV L protein, residues 1-1750); remark: listed apart in the source

T1 sequence (A5HC98 1-1750): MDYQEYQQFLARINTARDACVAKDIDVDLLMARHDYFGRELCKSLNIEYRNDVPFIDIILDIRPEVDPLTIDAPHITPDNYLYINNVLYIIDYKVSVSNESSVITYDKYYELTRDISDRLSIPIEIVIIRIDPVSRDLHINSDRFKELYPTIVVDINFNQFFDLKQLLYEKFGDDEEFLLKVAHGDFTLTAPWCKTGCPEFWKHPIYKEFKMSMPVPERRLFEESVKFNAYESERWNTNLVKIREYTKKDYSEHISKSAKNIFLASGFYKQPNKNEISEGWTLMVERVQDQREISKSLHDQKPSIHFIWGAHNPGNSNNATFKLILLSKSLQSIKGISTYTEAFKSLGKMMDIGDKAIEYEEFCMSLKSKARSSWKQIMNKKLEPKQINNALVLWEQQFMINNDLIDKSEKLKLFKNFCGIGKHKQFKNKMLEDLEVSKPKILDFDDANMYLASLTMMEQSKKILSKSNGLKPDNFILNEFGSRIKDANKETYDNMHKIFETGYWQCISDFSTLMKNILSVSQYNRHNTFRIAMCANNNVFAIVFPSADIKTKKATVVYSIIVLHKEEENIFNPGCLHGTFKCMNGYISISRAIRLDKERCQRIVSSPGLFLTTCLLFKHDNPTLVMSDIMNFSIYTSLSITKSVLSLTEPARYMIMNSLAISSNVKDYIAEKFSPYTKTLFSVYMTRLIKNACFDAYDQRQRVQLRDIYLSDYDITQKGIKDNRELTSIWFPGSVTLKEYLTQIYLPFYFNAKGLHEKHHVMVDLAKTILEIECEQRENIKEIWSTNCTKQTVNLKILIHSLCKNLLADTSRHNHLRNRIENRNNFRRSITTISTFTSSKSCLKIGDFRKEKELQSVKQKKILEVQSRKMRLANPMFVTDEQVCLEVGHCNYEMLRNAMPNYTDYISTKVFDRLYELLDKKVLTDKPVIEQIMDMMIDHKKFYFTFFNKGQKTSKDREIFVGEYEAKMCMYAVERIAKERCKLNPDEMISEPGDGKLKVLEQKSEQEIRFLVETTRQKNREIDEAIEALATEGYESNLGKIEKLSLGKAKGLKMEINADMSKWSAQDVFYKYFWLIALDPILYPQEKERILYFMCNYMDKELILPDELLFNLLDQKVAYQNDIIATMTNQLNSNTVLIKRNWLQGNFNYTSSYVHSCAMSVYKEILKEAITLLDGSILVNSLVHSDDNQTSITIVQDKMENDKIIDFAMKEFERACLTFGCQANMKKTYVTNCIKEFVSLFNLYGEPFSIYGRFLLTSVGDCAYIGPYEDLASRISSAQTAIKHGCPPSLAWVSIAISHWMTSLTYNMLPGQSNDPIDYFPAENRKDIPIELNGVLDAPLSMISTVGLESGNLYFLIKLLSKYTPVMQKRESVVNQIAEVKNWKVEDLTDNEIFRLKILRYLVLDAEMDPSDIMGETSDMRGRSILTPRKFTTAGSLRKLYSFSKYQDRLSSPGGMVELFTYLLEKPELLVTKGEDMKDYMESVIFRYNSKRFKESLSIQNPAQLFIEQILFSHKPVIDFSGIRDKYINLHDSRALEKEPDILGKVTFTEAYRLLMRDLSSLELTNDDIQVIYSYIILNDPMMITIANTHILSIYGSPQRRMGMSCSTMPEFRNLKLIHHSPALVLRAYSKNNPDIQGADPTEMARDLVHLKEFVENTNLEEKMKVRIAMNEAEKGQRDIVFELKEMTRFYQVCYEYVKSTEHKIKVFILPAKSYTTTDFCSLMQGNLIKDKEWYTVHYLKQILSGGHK

Binder: AGUAGUGUGCU (structured_RNA) [5' vRNA 1-11]
- binding result [1]: binds

B1: 3' vRNA 1-16 / 5' vRNA 9-16 partial duplex (mixed)
RNA 1: UUGGUAGUACACUACU
RNA 2: GCUACCAA
- binding result [2]: binds

Binder: AGUAGUGUGC (structured_RNA, 5' phosphate) [5' vRNA 1-10 (hook)]
- binding result [3]: binds
